Reference: patent US20200023081A1, “SELF-ASSEMBLING CYCLOPEPTIDE-DYE COMPOUNDS, FORMULATIONS THEREOF, AND USES THEREOF” (The Board of Trustees of the Leland Stanford Junior …, priority 2018, published 2020)
“And” between values parts separate entries of the source, which are not always exact repeats. Identical values can stand only once.

Assays:
[1] = Photostability under continuous 808 nm laser excitation; assay type: physicochemical; settings: 45 min continuous laser excitation (0.33 W/cm^2, 808 nm) in water, pH 7.4 PBS, FBS
From the text: The NIR fluorescence spectrum was taken using a home-built NIR spectroscopy setup. The excitation source was a 0.25 W 808 nm laser. The excitation laser was filtered with a combination of an 850/1,000/1,100/1,200/1,300 nm short-pass filters (Thorlabs). The excitation light was allowed to pass through the solution sample in a 1-cm-path-length cuvette (Starna Cells) and the resulting emission filtered through a 900 nm long-pass filter (Thorlabs) to reject the incident excitation laser light. The emitted light was directed into a spectrometer (Princeton Instruments, IsoPlane 160) equipped with a two-dimensional InGaAs array (Princeton Instruments, NIRvana TE 640). Spectra were corrected post-collection to account for the sensitivity of the detector and extinction feature of the filter. Photostability was determined by spiking CH-RGD NPs into FBS, 1× pH 7.4 PBS and DI water, and exposing it in a 1-cm-path-length cuvette (Starna Cells) to continuous 808 nm excitation at a power density of 0.33 W cm^−2 and taking images every 5 mins for approximately 45 min. Stability was determined by measuring the ROI and comparing the fluorescence intensity against the starting fluorescence signal.

[2] = In vitro serum stability in FBS; assay type: in vitro ADME; settings: 37° C.
Description: Fetal Bovine Serum (FBS, Gibco® Catalog #26140) was used to dilute the CH-RGD PBS stock solution into 2 mL, 10 μM mixture solution. And the mixture was incubated at 37° C. in a cell culture incubator for one month. At each designated time point, 200 μL serum mixture were collected for DLS and TEM analysis.

NIH/3T3 cells = test: MTT cytotoxicity of CH-RGD NPs; assay type: cell-based
Description: The CH-RGD NPs toxicity was determined in vitro with a MTT assay (3-(4,5-dimethylthiazol-2-yl)-2,5-diphenyl tetrazolium bromide, Sigma-Aldrich, St. Louis, Mo.) on NIH/3T3 cells. Approximately 5,000 cells were incubated per well with 200 μL of DMEM growth medium and serially diluted CH-RGD NPs solution (n=6 for each concentration). The cells were kept at 37° C. in a humidified atmosphere containing 5% CO2 for 48 h in the presence of CH-RGD NPs at different concentrations. Immediately before addition of 20 μl of MTT (5 mg/mL), a colorimetric indicator of cell viability, the CH-RGD NPs-spiked medium was removed from each well plate and replaced with 180 μL fresh medium. After 4 h, the medium was carefully removed, 100 μL DMSO was added. Shaking for 10 mins, the color change was quantified using a microplate reader (TECAN Infinite M100) and taking absorbance readings at 570 nm with a reference wavelength of 650 nm. Cell viability was plotted as a fraction of the absorbance of control wells incubated without CH-RGD NPs.

bone = assay type: in vivo, BALB/c mice
Description: FIG. 3A illustrates a supine position, top CH-RGD, bottom CH-RAD 3 h post-injection. 22 nmol CH-RGD or CH-RAD was intravenously injected into 20-25 g hairless BALB/c mice (n=6, 3 males, 3 female). NIR-II imaging (200 ms, 1150LP, 808 nm 140 mW/cm^2 laser excitation) was taken at different time points post-injection (post-injection).
(§1) Teen-week old BALB/c mice (n=3 male and 3 female per group) were obtained from Charles River for bone imaging studies, teen-week old C57BL/6 female mice (n=4 per group) were obtained from Charles River for brain vessel studies, teen-week old NU/NU female mice (n=4 per group) were obtained from Charles River for leg vessel studies, teen-week old BALB/c male mice (n=4 per group) were obtained from Charles River and housed for another 42 weeks for lymph node and lymphatic vessel studies, eight-week old female NU/NU mice (n=3 per group) were obtained from Charles River for tumor targeting studies. Before vessel or tumor imaging, all mice were anaesthetized in a rodent anesthesia machine with 2 l min^−1 O2 gas mixed with 3% Isoflurane. Tail vein injection of contrast agents were carried with a catheter and synchronized with a camera that started continuous image acquisition simultaneously. The IV injected dose was a 200 μL bolus in a 1×PBS solution at specified concentrations. The ID injected dose was a 50 μL bolus in a 1×PBS solution at specified concentrations. During the time course of imaging the mouse was kept anaesthetized by a nose cone delivering 2 l min^−1 02 gas mixed with 3% isoflurane. The sample sizes of mice were selected based on previously reported studies. Mice were randomly selected from cages for all experiments. No blinding was performed.
(§2) Images were processed with ImageJ.

[3] = Blood half-life measurement by NIR-II blood signal; assay type: in vivo; settings: mouse, BALB/c mice
Description: Arrows indicate the blood vessel signal.
Half-life: approximately 776 min.

[4] = Liver signal decay after IV injection; assay type: in vivo, BALB/c mice; settings: BALB/c, mouse, IV 10 nmol, read-out: elimination half-life from liver signal decay curve (converted)
From the text: IV inject 10 nmol CH-RGD NPs into BALB/c mice (n=5). NIR-II fluorescent imaging (10001p, 200 ms) of mice in a supine position were taken 1, 2, 3, 4, 8, 12, 32, 60 days (d) post injection. Of 5 mice, 4 gave the strongest signal 2 days post-injection. One mouse gave it 1 day post-injection. Each liver signal was normalized with the 2 days post-injection intensity. GraphPad Prism 6 one phase decay analysis was used to get the half-life approximately 7.65 d.

U87MG tumor [5] = test: Double subcutaneous U87MG tumor imaging; assay type: in vivo, nude mice; settings: IV 10 nmol
Description: FIG. 5A is a color photograph of a nude mouse with double xenograft brain tumor (U87MG) located on the left (approximately 1 mm) and right ([…]) shoulder. Intravenous injection of CH-RGD 10 nmol into the double tumor nude mice (n=3). NIR-II imaging (50 ms, 1000LP) at 3 days post-injection was taken at prone (FIG. 5B), right (FIG. 5C) and left (FIG. 5D) lateral decubitus.
The first right shoulder big tumor implantation is the same as above description. The difference is allowed the tumor grow for 2 to 3 weeks. When the right tumor diameter (ø) was between about 1 to 2 mm, 1×10^6 U87MG cells were injected into the mice left shoulder. After about 1 to 2 weeks, when the left shoulder tumor had grown to a diameter of about 1 mm and the right shoulder tumor was approximately 6 mm in diameter, the mouse was used for imaging.
as §2

[6] = test system: orthotopic bone tumors (143B); test: Orthotopic 143B osteosarcoma imaging; assay type: in vivo, nude mice; settings: ID injection
Description: Eight-week old female nude mice (Charles River) were anaesthetized using 2.0% isoflurane and positioned on a heating pad (42° C.). The shoulder was cleaned with 70% ethanol and betadine. 1×10^6 143B cells were first injected subcutaneously into the shoulder mice and the tumor allowed to grow to a diameter 5-8 mm solid tumor. The tumors were surgical resected and cut into 1×1×1 mm^3 pieces.
The right tibia of 8-week old NU/NU mice was opened in the central part by drilling with a dental drill for a 0.5 mm diameter hole. One tumor fragment was insert into the hole and contact with the bone marrow. Then the surgical wound was sutured. Mice were observed daily for tumor growth. Palpation, micro CT and 3T MRI were used to monitor the tumor growth. The mouse was used for imaging experiment, when the tumor size had reached to 3-5 mm diameter.

[7] = test system: metastatic tail bone tumor (143B); test: Metastatic 143B bone tumor imaging; assay type: in vivo, mice; settings: ID injection into left hind limb
Description: When the orthotopic 143B tumor grows to 3-4 mm diameter, surgery was performed to resect the tumor. Tumor was cut into pieces, and the visible tumor fragments were taken out. Then the surgical wound was sutured. Although the metastasis was not frequently occurring in mice tail, mice tail metastasis is the easiest diagnostic metastasis. By visual inspection, 143B tail metastasis mouse was chosen out. The mouse was used for imaging experiment when the tumor size reach to approximately 1 mm diameter.

blood vessels = test: Blood vessel imaging (brain, hind limb); assay type: in vivo, mice; settings: NIR-I imaging
Description: FIGS. 4A-4W show blood vessel, lymphatic vessel, and lymph node imaging with CH-RGD (NIR-II), ICG and IR800-RGD (NIR-I). 15 nmol CH-RGD, CH-PEG, ICG, IR800-RGD were IV injected into hairless C57BL/6 mice (FIGS. 4A-4C) or nude mice (FIGS. 4D and 4E). NIR-II (FIGS. 4A, 4B, 4D, 1000 ms, 1350LP) and NIR-I imaging (FIGS. 4C, 4E, 200 ms, 814-851BP) was taken 10 min post-injection. FIGS. 4A-4C, C57BL/6 mice brain vessel images.
as §1, with “The IV injected dose was a 200 μL bolus in a 1×PBS solution at specified concentrations. The ID injected dose was a 50 μL bolus in a 1×PBS solution at specified concentrations. During the time course of imaging the mouse was kept anaesthetized by a nose cone delivering 2 l min^−1 02 gas mixed with 3% isoflurane. The sample sizes of mice were selected based on previously reported studies. Mice were randomly selected from cages for all experiments. No blinding was performed.” left out

[8] = test system: lymphatic vessels and lymph nodes; test: Lymphatic vessel and lymph node imaging after ID injection; assay type: in vivo, BALB/c mice
Description: FIGS. 4F and 4G show cross-sectional fluorescence intensity profiles taken along red-dashed lines in (FIGS. 4D and 4E). Gaussian fits to the profiles are shown in red dashed curves. Vessel width measurements were taken from Gaussian curves. Lymphatic vessels and lymph node imaging: 3 nmol CH-RGD (FIGS. 4H-4J, 4Q, 4Y), ICG (FIGS. 4K and 4R) and IR800-RGD(s) ID into BALB/c mice (n=4 per probe). NIR-II (50 ms, 1100LP)/NIR-I (100 ms, 814-851BP) imaging was taken 1 h (FIGS. 4H-4J)/(FIG. 4K), 5 h (FIG. 4Q)/FIGS. 4R and 4S), 30 d (FIG. 4U) post ID, injection site (FIG. 4I).
IR800-RGD (3 nmol) was injected intradermally into hair-removed BALB/c mouse (n=4 per probe, male, 1 years old, weight approximately 42 g) tail base. NIR-1 imaging (100 ms, 814 approximately 851 bandpass) was taken 1 h, 3 h, 5 h post-injection. Fluorescent signal appears in mice bladder from 1 h post-injection.
as §1, with “The sample sizes of mice were selected based on previously reported studies. Mice were randomly selected from cages for all experiments. No blinding was performed.” left out

[9] = literature value; cited from earlier work
[10] = in DCE; cited from earlier work
U87MG tumor [11] = settings: mouse, in vivo, iv
Description: (§3) Then NIR-II (200 ms, 1000LP) or NIR-I (200 ms, 814-851BP) images were taken at different time points.
(§4) Nude mice were purchased from Charles River. U87MG cells were cultured in Dulbecco's modified Eagle medium containing high glucose (Gibco), which were supplemented with 10% fetal bovine serum and 1% penicillin-streptomycin. The cell was expanded in tissue culture dish and kept in a humidified atmosphere of 5% CO2 at 37° C. The medium was changed every other day. A confluent monolayer was detached with 0.5% trypsin, and dissociated into a single-cell suspension for inoculation. When the mice reached eight weeks in age, mice were inoculated with 1×10^6 U87MG cells on the right front shoulder. The tumor was allowed to grow for approximately 30 days before imaging, at which point they were approximately 30-120 mm^3 in volume.
(§5) Mice were placed on a stage with a venous catheter for IV injection of contrast and imaging agents. 0.5 mL syringe was used directly for ID injection. All NIR-II images were collected on a 640×512 pixel two-dimensional InGaAs array (Princeton Instruments, NIRvana TE 640). The excitation laser was an 808 nm laser diode at a power density of approximately 140 mW cm^−2. Emission was typically collected with 1000, 1050, 1100, 1150, 1200, 1250, 1300, 1350, 1400 nm LP filter (Thorlabs). 50 mm and 75 mm prime lens (Edmund optics) was used to obtain magnifications ranging of 1× (whole body) to 2.5× (high magnification) magnification by changing the relative position of camera, lens and animals. A binning of 1 and a variable exposure time were used for the InGaAs camera (640×512 pixel) to capture images in the NIR-II window. Images were processed with ImageJ.
(§6) All NIR-I images were collected A 1,344×1,024-pixel Hamamatsu silicon CCD detector (Hamamatsu C8484-03G02; pixel number: 1,344×1,024; readout noise: approximately 7 electron r.m.s.; dark current: 0.01 electrons per second per pixel) with an 814-851 nm bond pass filter (Edmund, #84-107). […]

U87MG tumor [12] = test: Subcutaneous U87MG tumor imaging, IV vs ID
Description: as §3, §4, §5, §6

Compound: N=C(N)NCCC[C@@H]1NC(=O)[C@H](CCCCNC(=O)CCc2ccc(N(c3ccc(CCC(=O)O)cc3)c3ccc(-c4c5c(c(-c6ccc(N(c7ccc(CCC(=O)O)cc7)c7ccc(CCC(=O)O)cc7)cc6)c6nsnc46)N=S=N5)cc3)cc2)NC(=O)[C@@H](Cc2ccc(O)cc2)NC(=O)[C@H](CC(=O)O)NC(=O)CNC1=O [CH-RGD, CH-c(RGDyk)]
- photostability [1]: remains stable
- time NPs stable in FBS before degrading into smaller NPs [2]: up to 2 weeks
- toxicity (NIH/3T3 cells): No obvious toxicity
- time BAT could be visualized (bone; mouse, in vivo): 10 days
- time bone signal still visualized, ex-vivo imaging (bone; mouse, in vivo): up to 45 days
- time bone signal still visualized, in vivo imaging (bone; mouse, in vivo): 3 days
- half-life [3]: ~12.9 h
- half-life [4]: ~184 h
- time of peak fluorescence intensity, large tumor (U87MG tumor [5]): 4 days
- time tumor fluorescence detectable, smaller tumor (U87MG tumor [5]; approximately 1 mm tumor): 4 h
- time tumor fluorescence detectable, larger tumor (U87MG tumor [5]; approximately 6 mm tumor): approximately 0.5 h
- time tumor still identifiable [6]: 7 days
- time tumors identified post-injection [7]: 1 days

Compound: CC1(C)C(/C=C/C=C/C=C/C=C2\N(CCCCS(=O)(=O)O)c3ccc4ccccc4c3C2(C)C)=[N+](CCCCS(=O)(=O)[O-])c2ccc3ccccc3c21 [ICG, indocyanine green]
- blood vessel detection (blood vessels): only the largest brain blood vessels could be detected
- SBR, subiliac lymph node ([8]; 5 h after ID injection): approximately 3
- FWHM, subiliac lymph node ([8]; 5 h after ID injection, Gaussian fitting): 2.8 mm and 2.803 mm
- width of lymphatic vessels detected ([8]; ID injection): greater than 400 μm
- blood half-life [9]: 3 to 5 min

Compound: ClC1=C(/C=C/c2cc(-c3ccccc3)[s+]c3ccccc23)CCC/C1=C\C=C1/C=C(c2ccccc2)Sc2ccccc21.[O-][Cl+3]([O-])([O-])[O-] [IR-26]
- quantum yield of reference fluorophore [10]: 0.05%

Compound: CH-c(RADyk) [CH-RAD]
- bone accumulation (bone; after 6 h post-injection): no dramatic accumulation in bone
- final concentration in bone by fluorescent intensity, relative to CH-RGD NPs (bone; mouse, in vivo): about half that of CH-RGD NPs
- time of maximum tumor fluorescence and TBR (U87MG tumor [11]): 1 days
- mean tumor fluorescent intensity (U87MG tumor [12]; IV administration): 22 k
- ID versus IV injection comparison (U87MG tumor [12]; mouse, in vivo, iv): better TBR through ID injection
